From patent publication US20220313789A1, “TARGETING MELANOCORTIN 3 RECEPTOR FOR TREATMENT/PREVENTION OF EATING, METABOLISM, AND/OR EMOTIONAL DISORDERS” (The Regents of the University of Michigan, priority 2019, published 2022)
“Also recorded” adds a separate entry of the source. Blank lines part the entries; values can stand above or below the substance they belong to. Bridge positions count the residues as written; N and C are the ends. Square brackets hold non-standard residues; d marks the D form. d2Nal = N[C@H](Cc1ccc2ccccc2c1)C(=O)O; Nle = CCCC[C@H](N)C(=O)O

Key:
AgRP neurons = assay: Feeding after MC3R agonist with chemogenetic (hM4Di) inhibition of AgRP neurons; assay type: in vivo, mice
Procedure: FIG. 7. […] Either saline or CNO (1 mg/kg, i.p.) was administered fifteen minutes prior to i.c.v. injections. […] Data represented as mean+/−s.e.m.
A and B: Schematic of experimental strategy to express inhibitory DREADD virus in hypothalamic AgRP neurons (A) and representative image of DREADD transduced AgRP neurons (B). Scale bar, 200 um. C: Food intake following administration of C18 in the presence of saline or CNO (0.1 mg/kg, i.p.). […] D: RNAscope analysis of MC3R expression in WT and AgRP-MC3R KI mice. […] Scale bar, 500 um.
To inhibit AgRP neurons, the arcuate nucleus of AgRP-Cre mice was targeted with stereotaxic viral injections of Cre-dependent AAV viral vectors expressing the chemogenetic inhibitor hM4Di (FIG. 7).

MC3R [1] = target: T1, MC3R (Mus musculus, UniProt P33033); assay: Novelty suppressed feeding test; assay type: in vivo, mice; conditions: i.c.v., NSF test
T1 construct: from tissue; host or cells: living mice (C57/BL6J background), central nervous system / hypothalamus
Procedure: (§1) Anxiety behavioral assays were performed in the following order with 2-4 days separated between each anxiety assay: elevated plus maze, open field test, novelty suppressed feeding test. Behavioral assays were performed during the light cycle between 10 am-5 pm. Open field and elevated plus maze testing was performed in ad libitum fed mice with one exception.
Prior to testing, mice were fasted overnight (6 pm-10 am). NSF testing was performed in the open field arena described above. Briefly, a single pellet of food (3-4 grams) was placed in the center of the open field. Mice were placed in the corner of the open field and their activity was automatically scored for ten minutes using animal tracking software. Latency to eat the food was manually recorded during testing. Feeding was scored as five consecutive seconds of chewing on the food.

MC3R [2] = target: T1, MC3R; assay: Open field test; assay type: in vivo, mice
Procedure: as §1
Open field tests were performed as previously described (Refs. 55-57; herein incorporated by reference in their entireties). Mice were placed in the corner of a 50 cm×50 cm open field chamber. The center of the arena was marked as the 25 cm×25 cm area in the center of the open field. Exploratory activity was recorded for five minutes using ANYmaze software (Stoelting). Entries to the center, time in the center, distance in the center, and total distance traveled were automatically recorded with video tracking software. For PG992 experiments, mice were randomly assigned to receive either vehicle or PG992 injections. One week later the order of treatments was reversed such that each mouse received both vehicle and PG992 treatment in random order. For DREADD mediated assays, mice were administered CNO on the day of testing. Differences in open field activity between DREADD transduced mice and WT littermates were compared on testing day in response to CNO treatment. Similarly, MC3R KO and WT mice were testing in the open field on the same day in random order and differences in exploratory activity were calculated as previously described.

MC3R [3] = target: T1, MC3R; assay: MC3R agonist feeding assays (food intake, body weight) in WT mice; assay type: in vivo
Procedure: Clozapine-N-Oxide (CNO) was purchased from Enzo Life Sciences. On the day of experiments fresh stock CNO (1 mg/0.1 ml) was prepared in water. CNO was administered via i.p. injections (200 ul Saline; 1 mg/kg). […] (5 ug; 500 nl DMSO).
Behavioral assays were performed on ad libitum fed mice. Mice were single caged for at least one week prior to starting feeding assays. Feeding assays were performed during the light period.
For peripheral administration of MC3R agonist compounds, mice were first habituated to vehicle injections (i.p.; saline in 10% DMSO; 200 ul) for 2-4 consecutive days. Following habituation and consecutive days of stable food intake in response to vehicle injections, agonist compounds were administered (i.p.; 10 mg/kg; saline in 10% DMSO). Food intake was measured following drug or vehicle administration by carefully removing food from the food hopper and weighing on a scale. Cages were changed daily during acute feeding assays to prevent spillage of food from the food hopper.
(§2) For central administration of MC3R agonist compounds we first administered vehicle injections (500 nl DMSO) for 2-4 consecutive days to habituate mice to handling and injection. […] Body weight was measured daily immediately prior to injections.

MC3R KO mice = assay: Feeding after i.c.v. administration in MC3R KO mice; assay type: in vivo
Procedure: FIG. 13. […] Data shown as mean+/−s.e.m. Panels A and B analyzed with Student's paired t-test. n=9 mice for panels A and B.
B: 24-hour food intake following administration of vehicle (aCSF) or C18 to WT mice. […] C: Change in BW following injection of vehicle or C18 (5 ug). D and E: Cumulative food intake (D) and 24-hour food intake (E) following C18 or vehicle administration in MC3R KO mice. […] F: Cumulative food intake following administration of the MC3R antagonist C11 or vehicle. […] G: 24-hour food intake in WT mice following administration of C11. H: Change in BW following injection of vehicle or C11 (5 ug). I and J: Food intake following i.c.v. injection of vehicle (DMSO, 500 nl) or C11 (5 ug, 500 nl) in MC3R KO mice. […] Data represents mean+/−s.e.m. […] Panels B, C, G, H, and J analyzed with unpaired Student's t-test. n=7 mice and n=8 mice for vehicle and C18 groups in panels A-C. n=19 mice for panels F and G. n=6 mice for vehicle and n=8 mice for C11 group in panel H. n=12 mice for vehicle and C18 group in panels D and E. n=8 mice for vehicle and C11 groups in panels I and J.
as §2

MC3R [4] = target: T1, MC3R; assay: Elevated plus maze; assay type: in vivo, mice
Procedure: as §1
To perform elevated plus maze tests mice were initially placed into the closed arm of the elevated plus maze arena. The arena consisted of 2 50 cm long arms. One arm was enclosed by walls while the other arm was open. Activity in the maze was recorded for five minutes using animal tracking software (ANYmaze, Stoelting). Latency to enter the open arms, total distance traveled, entries to open arms, time in open arms, and distance traveled in the open arms was automatically calculated using tracking software. Treatment schedules for the elevated plus maze were identical to those described for the open field test.

[5] = i.c.v. 5 ug in 500 nl DMSO vs vehicle
[6] = 5 ug, i.c.v., elevated plus maze

T1 sequence (P33033 whole entry): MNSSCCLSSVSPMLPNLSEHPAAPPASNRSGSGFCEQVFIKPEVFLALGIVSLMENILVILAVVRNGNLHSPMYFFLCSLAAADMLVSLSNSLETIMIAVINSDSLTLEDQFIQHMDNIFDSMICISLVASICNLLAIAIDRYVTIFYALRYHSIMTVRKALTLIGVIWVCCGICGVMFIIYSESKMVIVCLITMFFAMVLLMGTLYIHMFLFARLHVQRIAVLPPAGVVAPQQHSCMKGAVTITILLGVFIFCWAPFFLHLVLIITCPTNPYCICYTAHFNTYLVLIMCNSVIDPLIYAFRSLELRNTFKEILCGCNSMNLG

total time eating (MC3R [1]): increased total time eating
anxiolytic activity (MC3R [2]; ICV, elevated plus maze, and novelty suppressed feeding assay): clear anxiolytic activity
Substance: Ac-Nle-c[Asp-Trp-Pro-DNal(2′)-Arg-Trp-Lys]-NH2 (Ac-[Nle]DWP[d2Nal]RWK-NH2; lactam 2-8) [PG992]
PG992 induced stimulation of food intake under AgRP neuron inhibition (AgRP neurons; CNO (1 mg/kg, i.p.) before PG992 5 ug i.c.v., hM4Di in AgRP neurons): significantly reduced the ability of PG992 to stimulate feeding; also recorded: significantly reduced in the presence of AgRP neuron inhibition
4-hour, 8-hour and 24-hour food intake (AgRP neurons; PG992 5 ug i.c.v., saline or CNO (1 mg/kg, i.p.) fifteen minutes before): robustly stimulated food intake at 4 hours, 8 hours, and 24 hours; also recorded: increased food intake following both saline and CNO injections at all time-points
distance traveled (MC3R [1]): without significantly effecting total distance traveled; also recorded: did not affect distance traveled
latency to eat (MC3R [1]): decreased latency to feed; also recorded: reduced latency to eat
distance traveled in the center (MC3R [2]; 5 ug, i.c.v.): increased the distance traveled in the center; also recorded: increased distance traveled in the center
entries in the center (MC3R [2]; 5 ug, i.c.v.): increased entries to the center; also recorded: increased distance traveled in the center and entries in the center
latency to enter the center (MC3R [2]; 5 ug, i.c.v.): decreased the latency to enter the center; also recorded: reduced latency to enter the center of the arena
total distance traveled (MC3R [2]; 5 ug, i.c.v.): Total distance traveled was also increased
weight gain (MC3R [3]; 3 days of treatment): 8%
24 h food intake (MC3R [3]; PG990 series of peptides, route not given in the sentence): increases 24 h food intake
stimulation of food intake (MC3R [3]; central injection (i.c.v.), 5 μg): ~50%
24-hour food intake compared with chemogenetic (DREADD) neuron activation (MC3R [3]; i.c.v. PG992 vs CNO/hM3Dq): increased 24-hour food intake to a greater extent than chemogenetic activation of AgRP neurons; also recorded: even more potent inducer of 24 h food intake than DREADD activation of MC3R ARC neurons; also recorded: produced a greater change in 24-hour food intake than AgRP neuron activation
Feeding in response to central administration (MC3R [3]; i.c.v., 5 ug in 500 nl DMSO, vs vehicle): acutely stimulated feeding at all measured time-points
Food intake at 4 and 24 hours (MC3R [3]; i.c.v., 5 ug, single injection): increased food intake at both 4 hours and 24 hours post injection
increase in body weight each treatment day (MC3R [3]; once daily i.c.v. injections): 2-3%
Daily food intake (MC3R [3]; once daily i.c.v. injections (5 ug)): increased daily 24-hour food intake on each day of treatment
duration of food intake stimulation (MC3R [3]; single i.c.v. injection): at least 24 hours
24-hour food intake (MC3R KO mice; [5]): No significant difference in 24-hour food intake
Acute food intake (MC3R KO mice; [5]): No significant difference in food intake
body weight (MC3R KO mice; icv): no activity on food intake or body weight
food intake (MC3R KO mice; icv): no activity on food intake or body weight; also recorded: No effect on food intake
Entries to the open arms (MC3R [4]; [6]): trended towards being higher; also recorded: entered the open arms more frequently
distance traveled in the open arms (MC3R [4]; [6]): increasing distance traveled in the open arms; also recorded: traveled more distance in the open arms
latency to enter the open arms (MC3R [4]; [6]): decreasing latency to enter the open arms; also recorded: entered the open arms faster
total distance traveled (MC3R [4]; [6]): increased total distance traveled in the elevated plus maze

anxiety in the elevated plus maze assay (MC3R [4]; single peripheral injection): trend towards reduction of anxiety
Substance: H-Tyr-Val-Met-Gly-His-Phe-Arg-DTrp-Asp-Arg-Phe-Gly-OH [D-Trp8-γ-MSH]

Substance: Ac-Arg-Arg-(pI)DPhe-Tic-NH2 [compound 18]
Food intake in the presence of saline or CNO (AgRP neurons; C18, CNO 0.1 mg/kg, i.p., inhibitory DREADD in AgRP neurons): increased food intake following administration of saline but not following CNO mediated inhibition of AgRP neurons
Food intake, cumulative/acute and 24-hour (MC3R KO mice; i.c.v. 5 ug vs vehicle): No difference in food intake was detected following C18 administration
